From paper PMC8636562, “Mounting, structure and autocleavage of a type VI secretion-associated Rhs polymorphic toxin” (Nature Communications, 2021)

Columns and labels:
[1] = molecular target: T1, Rhs1 D1338N Y1351A Y1375A, C-terminally FLAG-tagged (catalytic-null mutant used for cryo-EM) (Photorhabdus laumondii (P. luminescens …, UniProt Q7N9I0 1-1471, D1338N | Y1351A | Y1375A)); test: cryo-EM structure; EagR-Strep/Rhs1-FLAG (D1338N, Y1351A, Y1375A) complex purified by StrepTrap and Superose 6; single particle, Talos Arctica 200 kV; 3.72 Å unmasked map, 3.17 Å masked on the Rhs1 shell; EagR dimer homology model fitted in low-resolution density; details: both partners purified
T1 construct: Rhs1 (Plu0353) of Photorhabdus laumondii with D1338N (no C-terminal autocleavage) and Y1351A, Y1375A (no toxicity); atomic model built for residues 272-1357; also called Rhs1^FL; source: E. coli BL21(DE3), co-purified with EagR (StrepTrap HP, Superose 6)
T1 sequence (looked up): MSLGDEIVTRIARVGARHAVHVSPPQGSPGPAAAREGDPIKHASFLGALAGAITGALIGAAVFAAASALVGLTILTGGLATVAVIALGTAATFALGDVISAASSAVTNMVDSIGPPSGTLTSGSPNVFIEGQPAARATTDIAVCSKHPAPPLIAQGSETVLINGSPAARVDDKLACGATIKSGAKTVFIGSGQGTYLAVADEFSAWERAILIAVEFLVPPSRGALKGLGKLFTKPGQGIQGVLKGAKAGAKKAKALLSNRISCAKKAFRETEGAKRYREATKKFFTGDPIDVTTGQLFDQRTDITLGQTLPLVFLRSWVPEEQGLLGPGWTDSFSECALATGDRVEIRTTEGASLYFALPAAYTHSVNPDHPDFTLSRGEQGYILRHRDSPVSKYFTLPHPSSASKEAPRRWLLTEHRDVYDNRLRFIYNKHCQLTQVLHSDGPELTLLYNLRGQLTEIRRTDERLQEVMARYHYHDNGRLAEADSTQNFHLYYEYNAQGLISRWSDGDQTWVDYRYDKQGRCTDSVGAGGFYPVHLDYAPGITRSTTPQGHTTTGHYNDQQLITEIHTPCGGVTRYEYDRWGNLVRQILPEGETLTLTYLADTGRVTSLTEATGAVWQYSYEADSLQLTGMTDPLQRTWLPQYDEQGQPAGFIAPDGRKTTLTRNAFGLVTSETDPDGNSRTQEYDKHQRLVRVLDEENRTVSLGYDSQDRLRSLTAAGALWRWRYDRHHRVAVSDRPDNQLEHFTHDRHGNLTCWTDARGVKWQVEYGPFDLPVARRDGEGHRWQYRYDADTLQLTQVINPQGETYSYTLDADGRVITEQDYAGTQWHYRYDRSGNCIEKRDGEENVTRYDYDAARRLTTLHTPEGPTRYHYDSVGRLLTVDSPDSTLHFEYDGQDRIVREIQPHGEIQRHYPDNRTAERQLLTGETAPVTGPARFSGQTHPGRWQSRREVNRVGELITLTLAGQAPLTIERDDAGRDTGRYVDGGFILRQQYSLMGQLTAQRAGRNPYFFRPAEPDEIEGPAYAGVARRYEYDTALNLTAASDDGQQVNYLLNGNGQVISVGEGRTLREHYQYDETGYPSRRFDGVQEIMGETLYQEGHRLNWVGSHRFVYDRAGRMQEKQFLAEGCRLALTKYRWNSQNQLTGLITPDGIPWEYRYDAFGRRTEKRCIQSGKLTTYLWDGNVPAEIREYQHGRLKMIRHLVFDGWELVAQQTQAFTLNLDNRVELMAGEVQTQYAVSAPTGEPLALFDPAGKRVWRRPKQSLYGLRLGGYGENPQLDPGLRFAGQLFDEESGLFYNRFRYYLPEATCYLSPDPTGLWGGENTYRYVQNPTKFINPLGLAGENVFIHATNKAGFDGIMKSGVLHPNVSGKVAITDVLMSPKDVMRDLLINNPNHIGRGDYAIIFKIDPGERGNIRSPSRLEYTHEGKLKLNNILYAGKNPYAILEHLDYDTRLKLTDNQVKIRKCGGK

[2] = molecular target: the molecule itself; test: as above

B1: Photorhabdus laumondii EagR chaperone (Plu0354), C-terminally Strep-tagged (natural protein)
chain: MENTTYQMNEGSLAIPGNWRDESMNVFVLPDDSGINLVVSRTPVPAGMDNPAYYEQTLEQFCTHLPGYQEHQRSEITLSQQPARRLDYQWTSPEGDMYQTVILQIRGPLLLTFNLTSPAPFEAGQRDTLLAIVHSFQAA
notes: Eag (DUF1795) family chaperone EagR of Photorhabdus laumondii, Plu0354; also called ^STEagR; EagR^ST; source: E. coli BL21(DE3), co-produced, in total cell extract; also purified in complexes (Strep-Tactin resin; StrepTrap HP and Superose 6); not shown: Strep-tag, C-terminal, kept
**Q.** Does B1 bind [1]?
**A.** Result: binds

**Q.** Does B1 bind [2]?
**A.** Result: binds
